The nature of this data set: soluble on expression in E. coli; label from the status in PepcDB or PDB records.
On to “KLVIAIVQDKDANYLSDQFIDQNVRATKLSTTGGFLQSGNTTFMIGIEEERVPEVLEIIKKASHTREEFMTPSVNMDVNMEGTTAYPIKVQVGGATVLVLPVDQFERF”, for which the “soluble on expression in E. coli” value is listed as “not soluble”.
In the case of “SVSTTFRRIVSPCWRPFGIGEDSSPGSDDTNGRLDGLLWYKDSGNHITGEFSMAVVQANNLLEDHSQLESGPISLHESGPEATFVGVYDGHGGPEAARFVNDRLFYNIKRYTSEQRGMSPDVITRGFVATEEEFLGLVQEQWKTKPQIASVGACCLVGIVCNGLLYVANAGDSRVVLGKVANPFKELKAVQLSTEHNASIESVREELRLLHPDDPNIVVLKHKVWRVKGIIQVSRSIGDAYLKRAEFNQEPLLPKFRVPERFEKPIMRAEPTITVHKIHPEDQFLIFASDGLWEHLSNQEAVDIVNSCPRNGVARKLVKAALQEAAKKREMRYSDLEKIERGIRRHFHDDITVIVVFLHATNFATRTPISVKGGGLLSAHNPVL”, the “soluble on expression in E. coli” value is given as “soluble”.
With “MNNPAMTIKGEQAKKQLIAAALAQFGEYGMNATTREIAAQAGQNIAAITYYFGSKEDLYLACAQWIADFIGEQFRPHAEEAERLFAQPQPDRAAIRELILRACRNMIKLLTQDDTVNLSKFISREQLSPTAAYHLVHEQVISPLHSHLTRLIAAWTGCDANDTRMILHTHALIGEILAFRLGKETILLRTGWTAFDEEKTELINQTVTCHIDLILQGLSQRSL”, the “soluble on expression in E. coli” value is listed as “soluble”.
In the case of “MRTEKEMIDLIMNTAKEDERIRAVIMNGSRVNPNVKKDCFQDFDIIYAVKDIRSFTSNHNWIHRFGEIMIVQMPEEMSLIPADEDGKFPYLMQFMDGNRIDLTLAPVELINNFVRQDSLSKLLLDKDNCMEGFPPASDKDYLIKKPTEKEFLDCCNEFWWCSTNVAKGLWREELSYVKGMLDGPVRDMLIVMLEWHIGMKTDFIVNAGKFGKHFEKYIEKDMWVQFKRTFSNAEYENIWESFFDMGNLFREVANEIANAYGYPYPQGDDDRVTSYLKHVKALPKDSTSIY”, the “soluble on expression in E. coli” value is recorded as “not soluble”.
As for “QEQLVESGGRLVTPGTALTLTCKVSGFSLSGFWLNWVRQAPGKGLEWVGAIYRGSGSEWYASWAKGRFTISDTSTTVTLKLTSPTTEDTATYFCAADTTDNGYFTIWGPGTLVTVSSASTKGPSVFPLAPSAKSTSGGTAALGCLVKDYFPEPVTVSWNSGALTSGVHTFPAVLQSSGLYSLSSVVTVPSSSLGTQTYICNVNHKPSNTKVDKKAEPKSCDKTRGHHHHHH”, the “soluble on expression in E. coli” value was “soluble”.
Regarding “MKFILRLGLALLTGFVSVSTASAQAYGTADTNAPELRVPKSVQPAFDYWMRDTWATLGPDGYYYITGTTSTPDRHFPGQRHCWDWNDGLYLWRSKDLKIWEAMGRIWSMEKDGTWQKDPKVYKEGEKYAKKSINNDPMDNRFHAVWAPEMHYIKSAKNWFIVACMNQSAGGRGSFILRSTTGKPEGPYENIEGNEDKAIFPNIDGSLFEDTDGTVYFVGHNHYIARMKPDMSGLAEEIKTLKESKYSPEPYVEGAFIFKYDGKYHLVQAIWAHRTVKGDTYVEKEGLTNKKTRYSYDCIIATADNVYGPYGKRYNAITGGGHNNLFQDKDGNWWATMFFNPRGAQAAEYKVTCRPGLIPMLYENGKFKPNHNYQAK”, the “soluble on expression in E. coli” value is “not soluble”.
As for “MAHHHHHHSLMLVVRPISMADYEALHTCAVESGHGFTSLPVDQELLTNRITHSEYSFSKPNVTMPGDEGYLMVGVDTETGQVAGTTGIEASIGWDVPFYSYHISTIVHSSPKLGVNNVVKLLTFGNNYTGCSEICTLFLRPQYRQGLNGRLMSKCRFLMMAEHSHRFSKTIFAEMRGVSDADGNSPFWKWLQEHFFSIDFTLADYLTGIGKKGFIADLMPKLPIYVNLLSKEAQAVIGQVHENTRPALVLLEKEGFTCRNYVDIFDAGPTVECELNNIESVRHSVRAIVEVAEHSSSQNFIMCNTSFENFRATAAKAAYSQEDNAVIISPKVAAALEVSTGDYLRILAQEG”, the entry is “not soluble”; as for “MEYKSPVYGIIAVPIEKIESNDYNPNAVAPPEMQLLYKSIKEDGYTMPIVCYYNEEKDKYIIVDGFHRYRVMLENEDIYDRENGLLPVSVIDKSLDERMASTIRHNRARGSHNVDLMSKIITELCEIGKSDEWISKHLGMEVDEILRLKQITGLAYLFKDKEFGNAWIPFGSDIEEEN”, “not soluble”.
Turning to “SSGNHIFKGRAAGIAVNENGKGLITENVIRENQWGGVDIRRGGIPVLRSNLICFGYSDGVVVGDEGKGLIEGNTIYANKGCGVWMMSSSLPHVTSNHVSYNGLYGVAVFSQKDGSSELPRGHRAQENFSEDGDAILWETELEKEDDPLRRPITIALVESNSINHNGASGLYVQSSEALHVITNVIHANGDRGITVAQSSQPTRVANNSISCNRQSGVKVEAQCKVELRGNGIYDNRGHGIITKGDSTIVIENDIIGNRGSGLQLLPRSDTKVIKNRIHSFRAYGIAVRGRAKALVQENIIFQGKTSKTIFQQISNNRECIMQNNKFLVFKKKSDTWR”, the “soluble on expression in E. coli” value is “soluble”.
For the sequence “MGSDKIHHHHHHMKTRDKIIQASIELFNEQGERNVTTNHIAAHLAISPGNLYYHFRNKEDIILSIYEEYARSLLLETLPKVSSEVKPLDSLILYMDSVFQTTMKFRFFYSNLPVLLDKNPILREKYVEVQQSISERVSQLLISLRAADYIDFNDDELADIVSILRLINTFWVSFHQTQTIVNEVNDSVFYQGVLKILVILRPYTKAHAISELNHARDVYQQRYREEAETA”, the “soluble on expression in E. coli” value is “not soluble”.
With “MSLSSARADRLRSHQTRVIGLILTDIANPFYTEIAAGTIDAARARGYEVFLAHTQEDPQTLRSIVDTMIARQVDGVVITVLHPDDGEVIRSLRSARIPLVQLSRRIQRVDADFVGIDDRAAASEMMEHVVTHGYQDIVTVVGPRTSSASAAREEGFIRTAEAHGIRTVSSQRISTYLSERGGYEAVEQVLARKSLPRVIVCGSDVIALGAISALRERSLNVPDDVAVTGFDGLYPGPLVELTTINQPRREMAEQSIELLTRRIEGAGGSYQSVLRAHQLRIGTTCGCPRMRPHLAAEGHHHHHH”, the “soluble on expression in E. coli” value is recorded as “not soluble”.
As to “MGSDKIHHHHHHMQDSPVVLKVSHVAKSFRLPTEQATGLKMAFLNWTKGIKGYTEQKVLRDIDFEVHRGDFFGVVGRNGSGKSTLLKIISQIYVPDQGSVDVYGKLVPFIELGVGFNPELTGRENVYLNGALLGFSHSEIDAMYDDIVEFAELEEFMDQKLKNYSSGMQVRLAFSVAIKAQGDILVLDEVLAVGDEAFQRKCDAFFKKVQADPNKTVILVTHSMDAVKKYCNKAILIRDGEIVVSGDKNQVADQYTLDNLKGNEPLPEKKKQNGEYAIGLNATVPELKIVPKSDLSTDGKHPFQFDVVYEYKDSGTHYVAVNLLDLKRGGIVYDSGSRTLVQTSSGKHRFALEMPIDMLNSGVYRLYASVRVDDGDSADSETKMVAFTNEANGCVFSINNPDHEDYALLNEKAMIIRKRK”, the “soluble on expression in E. coli” value was “not soluble”.
The result for “SEKAVHSSTTSGPAVPGETTKTGTSIIDTAASAVQSFAPVNQIHQHLCAFHFYADDMARQVEAHHFCSHVNEEMRQCLIYDGPDANARLIGLEYIVSEKLFMTLPDEEKKLWHSHEWEVKGGFLFMPGVPGAIQRKDLDKVAKTYGKVFHFWQVDLGHELPIGLPNVMMAVTRDGQLFHEMIQEAEKRFGVSVEGERDSRAYMSGPELGIHPLANGGGKGMKLELREVDIKPVESVGSVFV” reads “soluble”; that for “MESKQPEDIHQDCELKQDELISKLQHSQQNFDNIKKILANFEKENENLADENEILKTRIASLEKDVKQEKNATKMAKSLNEETINELTLSEDLIESLKKQFQASKIELKEEILSKNKVEKDYSNDKRYFLEREQYLLITMESMESGKLEHEQQTEIMNKDVEELKIRVKELEATDLSEKNIELERQVGKLTAQLQDFESSRGYEQELILSQLEVQKRKLDKQLIDLQSKLERNPELVEFDKLHEELQTERMNMPVQVCYVHVSFIHKDIENLIYRKMNNNK”, “not soluble”; that for “MKVLFRSDSSSQIGFGHIKRDLVLAKQYSDVSFACLPLEGSLIDEIPYPVYELSSESIYELINLIKEEKFELLIIDHYGISVDDEKLIKLETGVKILSFDDEIKPHHCDILLNVNAYAKASDYEGLVPFKCEVRCGFSYALIREEFYQEAKENRKKKYDFFICMGGTDIKNLSLQIASELPKTKIISIATSSSNPNLKKLQKFAKLHNNIRLFIDHENIAKLMNESNKLIISASSLVNEALLLKANFKAICYVKNQESTATWLAKKGYEVEYKYLEHHHHHH”, “soluble”.
For the sequence “MGSDKIHHHHHHVATGTGLVAIPAAEKVGSEGYVIGIDMTPGMLHQARIKIAAAKLQNIELIEADVEYFNFSESSFDVVFCCEAIVLVPDILAILKKWYRFLKPGGFVAFTCPPETAFMASLQQRICARVLGVSLPHILEPLGTPEKCRNLLNQAGFRDIEIKIEPSGRYRPLRDNRLSEIAININFKGNPLLSKLSQEQLNQLQVEYKAEIEKLATEQGIWEDTTKLFVRARK”, the “soluble on expression in E. coli” value is on record as “not soluble”.
With “MISAKEQAKKGQIIYRYILLKIQSFKWPAGTRIFSERQLEIRFASSRSLIRTILNTLLGKDLIRHTKGNAGYFVAKNAGFSFFHKTQDNKLPKWAKLSTLMKNHLREVDRDVFSSIDSGVDFGNFKGLEAKLFDENKKNFLNLSFFGKDDVLQIFSEQNLQEQFFKDFAYNGIVVERKSSLICVDDETKNLLIYDLFYDDNNKFIVAMRSEYLNPRIKIINA”, the “soluble on expression in E. coli” value was “soluble”.
Turning to “MGSDKIHHHHHHCTHKYKIEGTSSVNGLDGKMLYLKTLRDGEWTKLDSAEVVHGSFSMKGKIDSVQMTTLYMDDESVMPVVLESGKIVITISNTDLKAVGTPLNTALYDFIAKKNAMEESIGELERKETRMVMDGADLEEVHEQLLAEGDSLMKAMNQYVKTFISDNYENVLGPNVFIMLCSSLPYPIMTPQIDDIIKDAPYSFKSNKMVREFLTKAKENMQLIEEHQRMQQNVGSKK”, the “soluble on expression in E. coli” value is given as “not soluble”.
On to “MGHHHHHHSHEWGTVQLRGSWRVGQTAGGSRNFASYPTNPCFPFSVPEGPGPRCVRITLHQHCRPSDTEFHPIGFHIFQVPEGGRSQDAPPLLLQEPLLSCVPHRYAQEVSRLCLLPAGTYKVVPSTYLPDTEGAFTVTIATRIDRPSIHSQEMLGQFLQEVSVMAVMKT”, for which the “soluble on expression in E. coli” value is reported as “not soluble”.

The values are drawn from the DeepSol protein solubility set.
